We go through one protein from publication PMC6283576, “Structural insight into substrate and product binding in an archaeal mevalonate kinase” (PLoS ONE, 2018).

This data set concerns the molecule itself. The experiment in a line: crystal structure; MmMK with mevalonate (2.10 Å) or 5-phosphomevalonate (2.46 Å); space group P2(1)2(1)2(1), two molecules in the asymmetric unit; 100 mM Bis-Tris pH 5.5, sodium potassium tartrate, PEG 8,000 or 10,000.

B1: mevalonate kinase from Methanosarcina mazei (enzyme)
chain: MVSCSAPGKIYLFGEHAVVYGETAIACAVELRTRVRAELNDSITIQSQIGRTGLDFEKHPYVSAVIEKMRKSIPINGVFLTVDSDIPVGSGLGSSAAVTIASIGALNELFGFGLSLQEIAKLGHEIEIKVQGAASPTDTYVSTFGGVVTIPERRKLKTPDCGIVIGDTGVFSSTKELVANVRQLRESYPDLIEPLMTSIGKISRIGEQLVLSGDYASIGRLMNVNQGLLDALGVNILELSQLIYSARAAGAFGAKITGAGGGGCMVALTAPEKCNQVAEAVAGAGGKVTITKPTEQGLKVD
notes: mevalonate kinase (MmMK), Methanosarcina mazei; codon-optimized gene cloned into pSKB3 (modified pET28b); also called MmMK; MK; source: E. coli BL21(DE3), purified (Ni-NTA)
Regarding B1, the binding result was “binds”.
